Source: PMC3897375, “Def1 Promotes the Degradation of Pol3 for Polymerase Exchange to Occur During DNA-Damage–Induced Mutagenesis in Saccharomyces cerevisiae” (PLoS Biology, 2014)

Columns and labels:
[1] = target: T1, Rev1 (S. cerevisiae, UniProt P12689 1-985); test: pull-down; GST–Pol32 (3 µg) or GST immobilised on glutathione–Sepharose beads, incubated with purified Pol31 (5 µg) and Rev1 (3 µg) together, overnight on ice; 50 mM Tris/HCl pH 7.5, 150 mM NaCl, 1 mM EDTA, 1 mM DTT, 10% glycerol, 0.01% Nonidet P-40; five washes, elution with 20 mM glutathione, SDS-PAGE; details: both partners purified
T1 construct: Rev1, translesion synthesis DNA polymerase, S. cerevisiae; also called TLS polymerase Rev1; purified Rev1; source: S. cerevisiae BJ5464, overexpressed, purified on glutathione–Sepharose 4B beads, eluted by PreScission protease cleavage; not shown: GST, N-terminal, cleaved
T1 sequence (looked up): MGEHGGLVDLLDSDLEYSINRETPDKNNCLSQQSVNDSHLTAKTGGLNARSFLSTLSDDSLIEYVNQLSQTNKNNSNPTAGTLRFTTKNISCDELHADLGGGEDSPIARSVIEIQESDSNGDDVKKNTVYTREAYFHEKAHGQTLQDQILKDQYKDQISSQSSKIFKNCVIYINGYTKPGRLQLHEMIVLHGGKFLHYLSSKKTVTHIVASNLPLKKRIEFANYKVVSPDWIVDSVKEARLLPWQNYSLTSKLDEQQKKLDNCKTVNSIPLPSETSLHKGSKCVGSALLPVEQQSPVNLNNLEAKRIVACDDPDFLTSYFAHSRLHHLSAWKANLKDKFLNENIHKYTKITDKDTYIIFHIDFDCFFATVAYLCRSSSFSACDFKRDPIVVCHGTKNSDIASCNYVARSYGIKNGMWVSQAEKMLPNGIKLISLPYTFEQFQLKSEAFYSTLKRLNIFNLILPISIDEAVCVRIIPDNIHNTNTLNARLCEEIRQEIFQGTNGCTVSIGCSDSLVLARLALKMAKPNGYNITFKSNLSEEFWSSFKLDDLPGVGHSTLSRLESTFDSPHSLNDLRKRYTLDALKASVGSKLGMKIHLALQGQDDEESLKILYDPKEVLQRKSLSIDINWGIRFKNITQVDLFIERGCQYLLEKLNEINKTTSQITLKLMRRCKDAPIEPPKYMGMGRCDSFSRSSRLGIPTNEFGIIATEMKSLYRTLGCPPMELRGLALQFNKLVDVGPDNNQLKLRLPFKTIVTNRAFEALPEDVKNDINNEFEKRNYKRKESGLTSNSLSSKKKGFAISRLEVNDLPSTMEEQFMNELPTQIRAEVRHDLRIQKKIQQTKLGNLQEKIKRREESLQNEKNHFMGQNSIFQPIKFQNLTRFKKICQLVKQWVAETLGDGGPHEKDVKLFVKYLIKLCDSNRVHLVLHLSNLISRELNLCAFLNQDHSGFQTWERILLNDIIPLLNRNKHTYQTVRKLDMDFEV

[2] = target: T2, Pol31 (S. cerevisiae, UniProt P46957 1-487); test: as above; details: both partners purified
T2 construct: Pol31, noncatalytic subunit of DNA polymerase delta, S. cerevisiae; also called purified Pol31; source: S. cerevisiae BJ5464, overexpressed, purified on glutathione–Sepharose 4B beads, eluted by PreScission protease cleavage; not shown: GST, N-terminal, cleaved
T2 sequence (looked up): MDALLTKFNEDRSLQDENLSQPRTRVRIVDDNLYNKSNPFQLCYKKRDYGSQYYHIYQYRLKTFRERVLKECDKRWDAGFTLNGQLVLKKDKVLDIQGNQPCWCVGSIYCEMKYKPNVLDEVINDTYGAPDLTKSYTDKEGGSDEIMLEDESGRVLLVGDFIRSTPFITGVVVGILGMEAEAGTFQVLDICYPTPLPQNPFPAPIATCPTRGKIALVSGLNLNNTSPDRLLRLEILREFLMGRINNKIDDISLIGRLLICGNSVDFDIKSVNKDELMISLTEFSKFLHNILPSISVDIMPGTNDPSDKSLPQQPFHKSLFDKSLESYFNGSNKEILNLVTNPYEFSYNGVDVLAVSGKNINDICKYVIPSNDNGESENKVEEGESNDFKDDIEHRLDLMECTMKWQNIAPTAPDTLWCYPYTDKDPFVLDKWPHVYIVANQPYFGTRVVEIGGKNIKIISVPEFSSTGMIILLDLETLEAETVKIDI

binding result [1]: binds | binding result [2]: binds
B1: GST–Pol32 (natural protein, S. cerevisiae, UniProt P47110 1-350, looked up)
chain: MDQKASYFINEKLFTEVKPVLFTDLIHHLKIGPSMAKKLMFDYYKQTTNAKYNCVVICCYKDQTIKIIHDLSNIPQQDSIIDCFIYAFNPMDSFIPYYDIIDQKDCLTIKNSYELKVSESSKIIERTKTLEEKSKPLVRPTARSKTTPEETTGRKSKSKDMGLRSTALLAKMKKDRDDKETSRQNELRKRKEENLQKINKQNPEREAQMKELNNLFVEDDLDTEEVNGGSKPNSPKETDSNDKDKNNDDLEDLLETTAEDSLMDVPKIQQTKPSETEHSKEPKSEEEPSSFIDEDGYIVTKRPATSTPPRKPSPVVKRALSSSKKQETPSSNKRLKKQGTLESFFKRKAK
notes: Pol32, noncatalytic subunit of DNA polymerase delta, S. cerevisiae; source: S. cerevisiae BJ5464, overexpressed, purified on glutathione–Sepharose 4B beads; not shown: GST, N-terminal, kept
